Experimental data: US20020042368A1 (IMMUNEX, published 2002)

B1: ADAM-21dis-Fc (Fc fusion)
chain: TSCGNGVVEREEQCDCGSVQQCEQDACCLLNCTLRPGAACAFGLCCKDCKFMPSGELCRQEVNECDLPEWCNGTSHQCPEDRYVQDGIPCSDSAYCYQKRCNNHDQHCREIFGKDAKSASQNCYKEINSQGNRFGHCGINGTTYLKCHISDVFCGRVQCENVRDIPLLQDHFTLQHTHINGVTCWGIDYHLRMNISDIGEVKDGTVCGPGKICIHKKCVSLSVLSHVCLPETCNMKGICNNKHHCHCGYGWSPPYCQHRGYGGSIDSGPASAKRSCDKTHTCPPCPAPEAEGAPSVFLFPPKPKDTLMISRTPEVTCVVVDVSHEDPEVKFNWYVDGVEVHNAKTKPREEQYNSTYRVVSVLTVLHQDWLNGKEYKCKVSNKALPAPIEKTISKAKGQPREPQVYTLPPSRDELTKNQVSLTCLVKGFYPSDIAVEWESNGQPENNYKTTPPVLDSDGSFFLYSKLTVDKSRWQQGNVFSCSVMHEALHNHYTQKSLSLSPGK
notes: also called ADAM-21 disintegrin-Fc polypeptide
B2: ADAM-15dis-Fc (Fc fusion)
chain: TSCGNMFVEPGEQCDCGFLDDCVDPCCDSLTCQLRPGAQCASDGPCCQNCQLRPSGWQCRPTRGDCDLPEFCPGDSSQCPPDVSLGDGEPCAGGQAVCMHGRCASYAQQCQSLWGPGAQPAAPLCLQTANTRGNAFGSCGRNPSGSYVSCTPRDAICGQLQCQTGRTQPLLGSIRDLLWETIDVNGTELNCSWVHLDLGSDVAQPLLTLPGTACGPGLVCIDHRCQRVDLLGAQECRSKCHGHGVCDSNRHCYCEEGWAPPDCTTQLKATSSRSCDKTHTCPPCPAPEAEGAPSVFLFPPKPKDTLMISRTPEVTCVVVDVSHEDPEVKFNWYVDGVEVHNAKTKPREEQYNSTYRVVSVLTVLHQDWLNGKEYKCKVSNKALPAPIEKTISKAKGQPREPQVYTLPPSREEMTKNQVSLTCLVKGFYPSDIAVEWESNGQPENNYKTTPPVLDSDGSFFLYSKLTVDKSRWQQGNVFSCSVMHEALHNHYTQKSLSLSPGK
notes: also called ADAM-15 disintegrin-Fc polypeptide
B3: ADAM-23dis-Fc (Fc fusion)
chain: TSCGNGYVEAGEECDCGFHVECYGLCCKKCSLSNGAHCSDGPCCNNTSCLFQPRGYECRDAVNECDITEYCTGDSGQCPPNLHKQDGYACNQNQGRCYNGECKARDNQCQYIWGTKAAGSDKFCYEKLNTEGTEKGNCGKDGDRWIQCSKHDVFCGFLLCTNLTRAPRIGQLQGEIIPTSFYHQGRVIDCSGAHVVLDDDTDVGYVEDGTPCGPSMMCLDRKCLQIQALNMSSCPLDSKGKVCSGHGVCSNEATCICDFTWAGTDCSIRDPVRNLHPPKDEGPKGPSATNRSCDKTHTCPPCPAPEAEGAPSVFLFPPKPKDTLMISRTPEVTCVVVDVSHEDPEVKFNWYVDGVEVHNAKTKPREEQYNSTYRVVSVLTVLHQDWLNGKEYKCKVSNKALPAPIEKTISKAKGQPREPQVYTLPPSRDELTKNQVSLTCLVKGFYPSDIAVEWESNGQPENNYKTTPPVLDSDGSFFLYSKLTVDKSRWQQGNVFSCSVMHEALHNHYTQKSLSLSPGK
notes: also called ADAM-23 disintegrin-Fc polypeptide
B4: ADAM-22dis-Fc (Fc fusion)
chain: TSCGNGFIETGEECDCGTPAECVLEGAECCKKCTLTQDSQCSDGLCCKKCKFQPMGTVCREAVNDCDIRETCSGNSSQCAPNIHKMDGYSCDGVQGICFGGRCKTRDRQCKYIWGQKVTASDKYCYEKLNIEGTEKGNCGKDKDTWIQCNKRDVLCGYLLCTNIGNIPRLGELDGEITSTLVVQQGRTLNCSGGHVKLEEDVDLGYVEDGTPCGPQMMCLEHRCLPVASFNFSTCLSSKEGTICSGNGVCSNELKCVCNRHWIGSDCNTYFPHNDDAKTGITLSGNGVAGTNGSCDKTHTCPPCPAPEAEGAPSVFLFPPKPKDTLMISRTPEVTCVVVDVSHEDPEVKFNWYVDGVEVHNAKTKPREEQYNSTYRVVSVLTVLHQDWLNGKEYKCKVSNKALPAPIEKTISKAKGQPREPQVYTLPPSRDELTKNQVSLTCLVKGFYPSDIAVEWESNGQPENNYKTTPPVLDSDGSFFLYSKLTVDKSRWQQGNVFSCSVMHEALHNHYTQKSLSLSPGK
notes: also called ADAM-22 disintegrin-Fc polypeptide
B5: ADAM-20dis-Fc (Fc fusion)
chain: TSCGNLVVEEGEECDCGTIRQCAKDPCCLLNCTLHPGAACAFGICCKDCKFLPSGTLCRQQVGECDLPEWCNGTSHQCPDDVYVQDGISCNVNAFCYEKTCNNHDIQCKEIFGQDARSASQSCYQEINTQGNRFGHCGIVGTTYVKCWTPDIMCGRVQCENVGVIPNLIEHSTVQQFHLNDTTCWGTDYHLGMAIPDIGEVKDGTVCGPEKICIRKKCASMVHLSQACQPKTCNMRGICNNKQHCHCNHEWAPPYCKDKGYGGSADSGPPPKNNMEGLNVMGKLRGSCDKTHTCPPCPAPEAEGAPSVFLFPPKPKDTLMISRTPEVTCVVVDVSHEDPEVKFNWYVDGVEVHNAKTKPREEQYNSTYRVVSVLTVLHQDWLNGKEYKCKVSNKALPAPIEKTISKAKGQPREPQVYTLPPSRDELTKNQVSLTCLVKGFYPSDIAVEWESNGQPENNYKTTPPVLDSDGSFFLYSKLTVDKSRWQQGNVFSCSVMHEALHNHYTQKSLSLSPGK
notes: also called ADAM-20 disintegrin-Fc polypeptide
B6: ADAM-17dis-Fc (Fc fusion)
chain: TSCGNSRVDEGEECDPGIMYLNNDTCCNSDCTLKEGVQCSDRNSPCCKNCQFETAQKKCQEAINATCKGVSYCTGNSSECPPPGNAEDDTVCLDLGKCKDGKCIPFCEREQQLESCACNETDNSCKVCCRDLSGRCVPYVDAEQKNLFLRKGKPCTVGFCDMNGKCEKRVQDVIERFWDFIDQLSINTFGKFLADNRSCDKTHTCPPCPAPEAEGAPSVFLFPPKPKDTLMISRTPEVTCVVVDVSHEDPEVKFNWYVDGVEVHNAKTKPREEQYNSTYRVVSVLTVLHQDWLNGKEYKCKVSNKALPAPIEKTISKAKGQPREPQVYTLPPSRDELTKNQVSLTCLVKGFYPSDIAVEWESNGQPENNYKTTPPVLDSDGSFFLYSKLTVDKSRWQQGNVFSCSVMHEALHNHYTQKSLSLSPGK
notes: also called ADAM-17 disintegrin-Fc polypeptide

target: T1, integrin α5β1 (human, UniProt P08648 42-1049; P05556 21-798); assay: flow cytometry on HMVEC-d; dis-Fc binding with 5-8 fold excess mAb SAM-1 (competitor) vs control mAb
T1 construct: whole, on cells; Native integrin on HMVEC-d; also called CD49e
Procedure: (§1) Prior to performing binding studies, HMVEC-d were removed from culture vessels using trypsin-EDTA. The cells were washed in media containing serum and resuspended in binding medium which consisted of PBS containing 1 mM Ca2+, 1 mM Mg2+ and 0.5 mM Mn2+, 0.1% sodium azide, 10% Normal goat serum, 2% rabbit serum and 2% fetal bovine serum.
(§2) One hundred microliters of cell suspension, containing 200,000 to 500,000 HMVEC-d, were added to 12×75 mm plastic test tubes. Monoclonal antibodies specific for one of the integrins, or a control monoclonal antibody (CD29 or M15), were added to the cell suspensions at a concentration of 100 μg/ml (5-8 fold mass excess) 15 minutes prior to addition of disintegrin-Fc fusion proteins. ADAM disintegrin-Fc polypeptides and control Fc fusion polypeptides (P7.5II.Fc) were added, at various concentrations from 12.5 to 20 μg/ml, to the cell suspensions and incubated for 1 hour at 30° C. Unbound Fc polypeptides were washed away by centrifugation of cells in 2 mls of binding media. The washed cell pellets were resuspended in binding medium and then incubated at 30° C. for 30 minutes with goat anti-human Fc-specific biotinylated antibody at a concentration of 2.5 μg/ml for 30 minutes. After centrifugation and washing of the cell pellets, the cells were resuspended in binding medium and bound anti-human Fc-biotin was detected by adding streptavidin-phycoerythrin conjugate to the cell suspension at a 1:1000 dilution (1 μg/ml) and incubating at 30° C. for 30 minutes. The unbound streptavidin-phycoerythrin was washed away and the cells were resuspended in binding medium containing propidum iodide. The level of fluorescent binding (disintegrin-Fc binding) was determined by flow cytometry.
(§3) The level of binding of each ADAM disintegrin-Fc polypeptide was determined in the presence of anti-integrin specific mAb and in the presence of control mAb. Both the intensity of binding (MFI) and the percentage of cells binding were determined. Percent inhibition was calculated using the formula [1-(MFI control-MFI integrin mAb)/MFI control.

First: B1
Second: B2
The “percent inhibition of binding” value of the first is higher: 54% for the first, 30% for the second.

Compared with B3, B4 is lower in “percent inhibition of binding” value: 49% for the first, 36% for the second.

target: T2, integrin αvβ3 (human, UniProt P06756 31-1048; P05106 27-788); assay: flow cytometry on HMVEC-d; dis-Fc binding with 5-8 fold excess mAb LM609 (competitor) vs control mAb
T2 construct: whole, on cells; Native integrin on primary human dermal microvascular endothelial cells (HMVEC-d); also called CD51/61
Procedure: as §1, §2, §3

Compared with B5, B2 is higher in “percent inhibition of binding” value: 58% for the first, 60% for the second.

Compared with B6, B4 is lower in “percent inhibition of binding” value: 50% for the first, 42% for the second.
